The values below come from IntAct's records for PubMed 21529711.

To fix the notation:
B1: Protein nutcracker (Drosophila melanogaster (Fruit fly)), Q8SX86 (parent)
chain: MSDTKSEIEGFIAIPTTSGEQQQQQPQQQQNEQQVVGTKDIKAPDQVGKKQRPRLIQEKSTQETNPLILEHATLEWVPQHMDKLLNQYQECRKMPAAEWLHLLTYLVALECGFVEEETFAQKRHLIQPVPSFSSFHAQNVRILSEQPARYEVCFNDTVYIMRLRTLLDKHAPEETSLVAALQCRLMAVSLGDQLMITLSPAPPSKEPGYSVSLSIGRYVLNIQAKNKPIYHRFRKLDELSYQLKQHLFQPMRSQQLMQMEMKLQPSLLGLPDELYFEIFRYLDKSQLNVVARVNRHLHFYSKEVERKRLKGGRS
partner: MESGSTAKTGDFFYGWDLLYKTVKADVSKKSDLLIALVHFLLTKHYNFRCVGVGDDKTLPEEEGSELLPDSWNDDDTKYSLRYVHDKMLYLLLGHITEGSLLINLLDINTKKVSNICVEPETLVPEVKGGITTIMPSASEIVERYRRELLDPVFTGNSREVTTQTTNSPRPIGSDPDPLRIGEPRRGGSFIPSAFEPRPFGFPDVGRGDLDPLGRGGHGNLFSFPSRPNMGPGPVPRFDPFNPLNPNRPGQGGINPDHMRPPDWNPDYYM

The experiment covers variants of B1. The conditions noted are these: with psmf1_drome PI31, Q9V637.
For the variant V188E, the “effect of a mutation on the interaction” value was “decreasing interaction”.
